Positions count from the first letter of the chain named. Entries after “also recorded” stand apart in the source; their conditions may differ.
B1: WT NRG1α (175-241): wild type human neuregulin 1 fragment, residues 175-241 of SEQ ID NO:4 (SEQ ID NO:5), entire EGF-like motif and α domain (protein)
chain: GTSHLVKCAEKEKTFCVNGGECFMVKDLSNPSRYLCKCQPGFTGARCTENVPMKVQNQEKAEELYQK
modifications: integrin-binding site within human neuregulin, residues 175-241of human neuregulin 1alpha, long version
B2: 3KE (175-241): NRG1α (175-241) with Lys181/Lys185/Lys187 mutated to Glu, SEQ ID NO:6 (3KE, long version) (protein)
chain: B1 chain with K7E, K11E, K13E
modifications: integrin-binding site within human neuregulin, residues 175-241of human neuregulin 1alpha, long version, 3KE mutant

Key:
Human M21 melanoma cells = assay: M21 cell proliferation, MTS assay; type: cell-based; conditions: for Induction of proliferation of M21 melanoma cells: serum-starved overnight, cultured 48 h, MTS
Method: FIG. 8. […] The mutant NRG1 (175-222) suppressed proliferation induced by wt NRG1 (175-222) (dominant-negative effect). Human M21 melanoma cells were serum-starved overnight and cultured 48 h with wt or mutant GST-NRG1 (175-222). Cell proliferation was measured by using MTS assays. Data are shown as means+/−SE (n=3). […] For 3KE+WT, 10 ng/ml wt NRG1 (175-222) and mutant NRG1 (175-222) were added at the indicated concentrations. […] P<0.0001 between wt and 3KE, p=0.0001 between wt and 3KE+wt by 2-way ANOVA. There is no statistical significance between 3KE and 3KE+wt (p=0.58).
Cell proliferation: cells were starved by culturing DMEM with low-level FCS (e.g., 0.4%) overnight and then treated with the wt or mutant NRG1 (175-222) (up to 100 ng/ml). The cells were harvested in 15 min to 6 h after stimulation and cell lysates analyzed by western blotting with antibodies specific to signaling molecules. Alternatively, cells were cultured for 24-48 h after stimulation for testing proliferation or cell viability by MTS assays. Statistical analysis and calculation of kinetic constants were performed using Prism software (Graphpad).

CHO cells = assay: ERK1/2 activation in CHO cells, Western blotting; type: cell-based, Chinese hamster; conditions: serum-starved
Method: FIG. 14. […] ErbB4 was stably expressed in CHO cells (designated ErbB4-CHO cells). ErbB4 was detected in a cell lysate of ErbB4-CHO cells by western blotting (top). Serum-starved CHO or ErbB4-CHO cells were stimulated with wt NRG1 (175-222) or the 3KE (175-222) mutant and ERK1/2 activation was measured by Western blotting.
CHO cells express endogenous ErbB2 and ErbB3, but no ErbB4. CHO cells that express ErbB4 were generated by transfecting ErbB4 expression vector (designated ErbB4-CHO). […] It is therefore believed that the direct binding of integrin […] the Ras-MAP kinase pathway in ErbB4-CHO cells.

[1] = test system: integrin β3 cytoplasmic domain; assay: Tyr-phosphorylation of integrin β3 cytoplasmic domain in M21 cells, Western blotting; type: cell-based, human; conditions: 10 ng/ml, serum-starved, 30 min
Method: FIG. 13. Wt NRG1 (175-222) enhanced Tyr-phosphorylation of the integrin β3 cytoplasmic domain, while 3KE (175-222) suppressed it in M21 cells. Serum-starved M21 cells were stimulated with 10 ng/ml wt or 3KE NRG1 (175-222). Tyr-phosphorylation of β3 was determined by Western blotting of cell lysates.
It has recently been reported that Tyr phosphorylation of the β3 tail plays a role in VEGF and insulin-like growth factor-1 (IGF1) (Clemmons et al. 2007; Mahabeleshwar et al. 2007). It was tested if NRG1 signaling requires Tyr-phosphorylation of the β3 tail in M21 cells. As shown here, the β3 tail is constitutively Tyr-phosphorylated in serum-starved cells.

[2] = test system: mock-transfected K562 cells; assay: Cell adhesion assay, mock-transfected K562 cells; type: cell-based, human
Method: FIG. 5. […] Adhesion assays was performed using αvβ3-K562 (left) or mock transfected cells (right) as described herein. The data is shown as means+/−SEM of triplicate experiments.
Cell adhesion and soluble integrin binding assays were performed as described previously (Mori, et al., 2008). NRG1α (175-241) was immobilized to wells of 96-well microtiter plate overnight at 4° C. in 0.1 M carbonate buffer, pH 2 9.4. Remaining protein binding sites were blocked by incubating with 200 μl of 0.1% BSA in PBS for 60 min at room temperature. Wells were then incubated with soluble integrin αvβ3 in 50 μl in Hepes-Tyrode's buffer supplemented with 1 mM Mn2+ at room temperature for 60 min. After rinsing the wells with the same buffer, bound integrins were determined by horseradish peroxidase (HRP)-conjugated anti-His tag mouse IgG and substrate 3,3′,5,5′-tetramethylbenzidine of HRP.

[3] = biological target: T1, Recombinant human ErbB3 Fc chimera (Homo sapiens, UniProt P21860); assay: ELISA-type binding to immobilized recombinant soluble ErbB3; conditions: ErbB3 Fc coated at 1 μg/ml, 1 h room temperature
T1 construct: Recombinant soluble ErbB3 Fc fusion protein was coated onto well of 96-well microtiter plate; purchased R&D Systems
Method: FIG. 20. The 3KE mutant of NRG1α (175-241) binds to ErbB3. a). Binding of the 3KE mutant of NRG1α (175-241) to recombinant ErbB3. Recombinant soluble ErbB3 Fc fusion protein (R&D system) was coated onto wells of 96-well microtiter plate (1 μg/ml). NRG1α (175-241) WT or 3KE (175-241) mutant was added to the wells and incubated for 1 h at room temperature. GST was used as a control. After washing the wells, bound GST NRG1α (175-241) was determined by using anti-GST antibody HRP conjugate. […] Competitive binding assay. Recombinant soluble ErbB3 Fc fusion protein was coated onto well of 96-well microtiter plate (1 μg/ml). Binding of biotin labeled NRG1α (175-241) WT (20 nM) in the presence of increasing concentrations of NRG1α (175-241) WT, 3KE (175-241) or GST. After washing the wells, bound biotin labeled NRG1α (175-241) WT was determined by using streptavidin HRP conjugate.

MCF-7 cells = assay: Western blot analysis of NRG1 signaling in MCF-7 cells; type: cell-based, human; conditions: 2.5 nM
Method: FIG. 22. Effect of the 3KE mutation on NRG1 signaling. The 3KE mutant of NRG1α (175-241) is defective in inducing ErbB3 phosphorylation, AKT activation and ERK1/2 activation. MCF-7 cells were serum-starved overnight and stimulated with 2.5 nM WT and the 3KE mutant of NRG1α (175-241) at indicated time points. Cell lysates were analyzed by western blotting. […] Data are shown with signals at time 0 as 1.
MCF-7 cells grown to confluence were serum-starved in serum-free medium overnight, and then treated with WT or 3KE mutant NRG1α (175-241) (2.5 nM) for 5 min to 6 h at 37° C. Cells were washed with ice-cold PBS once, and lysed with the lysis buffer (20 mM HEPES (pH 7.4), 100 mM NaCl, 10% Glycerol, 1% NP-40, 1 mM MgCl2, 5 mM EDTA, 0.5% Triton X-100, 1 mM phenylmethylsulfonyl fluoride, 20 mM NaF, 1 mM Na3VO4, protease inhibitor cocktail (Sigma-Aldrich)). Protein concentrations in the cell lysates were determined using BCA protein assay (Pierce). Equal amounts of cell proteins were analyzed by SDS-PAGE and transferred onto 0.45 μm pore-size polyvinylidene fluoride membrane (Milipore, Birellica, Mass.). The membrane was incubated with primary antibodies, then HRP-conjugated secondary antibody and enhanced chemiluminescence detection reagents (Pierce).

T1 sequence (P21860 20-643 limits assumed, change not shown): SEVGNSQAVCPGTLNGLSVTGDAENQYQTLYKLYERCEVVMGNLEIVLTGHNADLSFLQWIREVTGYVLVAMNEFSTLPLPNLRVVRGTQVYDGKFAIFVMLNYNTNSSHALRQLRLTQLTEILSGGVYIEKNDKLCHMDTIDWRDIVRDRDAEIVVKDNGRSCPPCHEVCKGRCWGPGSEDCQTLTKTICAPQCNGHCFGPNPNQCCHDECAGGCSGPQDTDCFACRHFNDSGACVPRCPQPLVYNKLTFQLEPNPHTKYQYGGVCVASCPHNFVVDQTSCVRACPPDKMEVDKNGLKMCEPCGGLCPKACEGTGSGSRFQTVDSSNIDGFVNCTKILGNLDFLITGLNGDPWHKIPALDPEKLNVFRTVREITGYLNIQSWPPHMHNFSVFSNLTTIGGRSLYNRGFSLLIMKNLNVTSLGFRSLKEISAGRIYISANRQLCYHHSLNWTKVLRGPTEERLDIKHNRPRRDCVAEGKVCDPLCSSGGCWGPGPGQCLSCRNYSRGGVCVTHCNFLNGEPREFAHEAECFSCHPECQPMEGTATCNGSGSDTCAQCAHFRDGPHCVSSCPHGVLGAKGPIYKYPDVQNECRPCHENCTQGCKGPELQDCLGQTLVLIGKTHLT

Molecule	Suppression of proliferation induced by wt NRG1 (175-222) in M21 cells (Human M21 melanoma cells; added together with 10 ng/ml wt NRG1 (175-222))	Induction of proliferation of M21 melanoma cells (Human M21 melanoma cells)	ERK1/2 activation in (mock-transfected) CHO cells (CHO cells)	ERK1/2 activation in (mock-transfected) CHO cells (CHO cells; listed as 3KE (175-222))	Tyr-phosphorylation of the integrin β3 tail in M21 cells [1]	Adhesion of mock-transfected K562 cells to the immobilized protein [2]	Binding to immobilized soluble ErbB3 (ELISA-type assay) [3]	AKT activation (phosphorylation) in MCF-7 cells (MCF-7 cells)	ERK1/2 activation (phosphorylation) in MCF-7 cells (MCF-7 cells)	ErbB3 phosphorylation in MCF-7 cells (MCF-7 cells)	Binding to immobilized soluble ErbB3 (ELISA-type assay) ([3]; listed as 3KE mutant NRG1α (175-241))	Binding to immobilized soluble ErbB3 (ELISA-type assay) ([3]; listed as 3KE mutant of NRG1α (175-241))
3KE (175-222): NRG1 (175-222) with Lys181/Lys185/Lys187 mutated to Glu; GTSHLVECAEEEETFCVNGGECFMVKDLSNPSRYLCKCQPGFTGARCT (SEQ ID NO:11) (integrin-binding site within human neuregulin, 3KE mutant, short version)	suppressed the proliferation induced by wt NRG1 (175-222)	did not induce proliferation	suppressed	suppressed ERK1/2 activation	suppressed it	–	–	–	–	–	–	–
wt NRG1 (175-222): wild type human neuregulin 1 fragment, EGF-like domain, residues 175-222 of SEQ ID NO:4 (SEQ ID NO:3) (GTSHLVKCAEKEKTFCVNGGECFMVKDLSNPSRYLCKCQPGFTGARCT; integrin-binding site within human neuregulin 1 EGF-like region and portion of alpha domain, residues 175-222 of human neuregulin 1 alpha) [reference compound]	–	did	enhanced ERK1/2 activation	–	enhanced levels of Tyr-phosphorylation	did not	–	–	–	–	–	–
B1	–	–	–	–	–	did not	bound to immobilized soluble ErbB3 comparably	markedly induced phosphorylation	markedly induced phosphorylation	markedly induced phosphorylation	–	–
B2	–	–	–	–	–	–	–	little or no AKT activation	much lower levels than WT NRG1α (175-241); also recorded: only weakly induced phosphorylation	much lower levels than WT NRG1α (175-241); also recorded: only weakly induced phosphorylation	bound to immobilized soluble ErbB3 comparably	binds to ErbB3 at levels nearly comparable to WT NRG1α (175-241)

Source: US20110212108A1, “NEUREGULIN/ERBB SIGNALING AND INTEGRIN” (THE REGENTS OF THE UNIVERSITY OF CALIFORNIA, priority 2008, published 2011)
